Experiments:
Assay in all cases: cell-based or functional assay
[1] = biological target: HIV-1 Env of pseudovirus 3103.v3.c10 (HIV-1)
[2] = biological target: HIV-1 Env of pseudovirus 6480.v4.c25 (HIV-1)
[3] = biological target: HIV-1 Env of pseudovirus 620345.c01 (HIV-1)
[4] = biological target: HIV-1 Env of pseudovirus 0815.v3.c3 (HIV-1)
[5] = biological target: HIV-1 Env of pseudovirus X2131_C1_B5 (HIV-1)
[6] = biological target: HIV-1 Env of pseudovirus X1193_c1 (HIV-1)
[7] = biological target: HIV-1 Env of pseudovirus 191955_A11 (HIV-1)
[8] = biological target: HIV-1 Env of pseudovirus CNE8 (HIV-1)
[9] = biological target: HIV-1 Env of pseudovirus C2101.c01 (HIV-1)
[10] = biological target: HIV-1 Env of pseudovirus BJOX025000.01.1 (HIV-1)
[11] = biological target: HIV-1 Env of pseudovirus 9004SS_A3_4 (HIV-1)
[12] = biological target: HIV-1 Env of pseudovirus C3347.c11 (HIV-1)
[13] = biological target: HIV-1 Env of pseudovirus 0260.v5.c36 (HIV-1)
[14] = biological target: HIV-1 Env of pseudovirus 3817.v2.c59 (HIV-1)
[15] = biological target: HIV-1 Env of pseudovirus 211-9 (HIV-1)
[16] = biological target: HIV-1 Env of pseudovirus T255-34 (HIV-1)
[17] = biological target: HIV-1 Env of pseudovirus 246F C1G (HIV-1)
[18] = biological target: HIV-1 Env of pseudovirus CAP210.2.00.E8 (HIV-1)
[19] = biological target: HIV-1 Env of pseudovirus CAAN5342.A2 (HIV-1)
[20] = biological target: HIV-1 Env of pseudovirus WITO4160.33 (HIV-1)
[21] = biological target: HIV-1 Env of pseudovirus 6240_08_TA5_4622 (HIV-1)
[22] = biological target: HIV-1 Env of pseudovirus 6535.3 (HIV-1)
[23] = biological target: HIV-1 Env of pseudovirus ZM109F.PB4 (HIV-1)
[24] = biological target: HIV-1 Env of pseudovirus HIV-16055-2.3 (HIV-1)
[25] = biological target: HIV-1 Env of pseudovirus CNE58 (HIV-1)
[26] = biological target: HIV-1 Env of pseudovirus SC422661.8 (HIV-1)
[27] = biological target: HIV-1 Env of pseudovirus 1394C9G1(Rev-) (HIV-1)
[28] = biological target: HIV-1 Env of pseudovirus BF1266.431a (HIV-1)
[29] = biological target: HIV-1 Env of pseudovirus RHPA4259.7 (HIV-1)
[30] = biological target: HIV-1 Env of pseudovirus THRO4156.18 (HIV-1)
[31] = biological target: HIV-1 Env of pseudovirus 6244_13_B5_4576 (HIV-1)
[32] = biological target: HIV-1 Env of pseudovirus Ce1172_H1 (HIV-1)
[33] = biological target: HIV-1 Env of pseudovirus Ce0393_C3 (HIV-1)
[34] = biological target: HIV-1 Env of pseudovirus CNE30 (HIV-1)
[35] = biological target: HIV-1 Env of pseudovirus Q769.d22 (HIV-1)
[36] = biological target: HIV-1 Env of pseudovirus CAP45.2.00.G3 (HIV-1)
[37] = biological target: HIV-1 Env of pseudovirus HIV-001428-2.42 (HIV-1)

N49P7.2 (antibody)
IC50 [1]: 0.222 µg/mL
IC80 [1]: 0.57 µg/mL
MPI [1]: 100
IC50 [2]: 0.098 µg/mL
IC80 [2]: 0.371 µg/mL
MPI [2]: 100
IC50 [3]: > 50 µg/mL
IC80 [3]: > 50 µg/mL
MPI [3]: 0
IC50 [4]: 0.023 µg/mL
IC80 [4]: 0.103 µg/mL
MPI [4]: 100
IC50 [5]: 0.161 µg/mL
IC80 [5]: 0.671 µg/mL
MPI [5]: 100
IC50 [6]: 0.014 µg/mL
IC80 [6]: 0.101 µg/mL
MPI [6]: 100
IC50 [7]: 44.5 µg/mL
IC80 [7]: > 50 µg/mL
MPI [7]: 56
IC50 [8]: 0.073 µg/mL
IC80 [8]: 0.24 µg/mL
MPI [8]: 100
IC50 [9]: 0.162 µg/mL
IC80 [9]: 0.727 µg/mL
MPI [9]: 100
IC50 [10]: 0.102 µg/mL
IC80 [10]: 0.831 µg/mL
MPI [10]: 100
IC50 [11]: 0.266 µg/mL
IC80 [11]: 1.62 µg/mL
MPI [11]: 100
IC50 [12]: 0.047 µg/mL
IC80 [12]: 0.154 µg/mL
MPI [12]: 100
IC50 [13]: 0.644 µg/mL
IC80 [13]: 1.8 µg/mL
MPI [13]: 100
IC50 [14]: 9.83 µg/mL
IC80 [14]: > 50 µg/mL
MPI [14]: 68
IC50 [15]: 0.363 µg/mL
IC80 [15]: 1.22 µg/mL
MPI [15]: 100
IC50 [16]: 0.167 µg/mL
IC80 [16]: 0.527 µg/mL
MPI [16]: 100

N49P6 (antibody)
IC50 [17]: 0.513 µg/mL
IC80 [17]: 2.51 µg/mL
MPI [17]: 99
IC50 [18]: 22.6 µg/mL
IC80 [18]: > 50 µg/mL
MPI [18]: 73
IC50 [1]: 0.582 µg/mL
IC80 [1]: 1.57 µg/mL
MPI [1]: 100
IC50 [2]: 0.089 µg/mL
IC80 [2]: 0.427 µg/mL
MPI [2]: 100
IC50 [3]: 22.9 µg/mL
IC80 [3]: > 50 µg/mL
MPI [3]: 70
IC50 [19]: 0.657 µg/mL
IC80 [19]: 1.83 µg/mL
MPI [19]: 100
IC50 [20]: 0.096 µg/mL
IC80 [20]: 0.277 µg/mL
MPI [20]: 100
IC50 [4]: 0.194 µg/mL
IC80 [4]: 1.25 µg/mL
MPI [4]: 100
IC50 [5]: 0.174 µg/mL
IC80 [5]: 0.72 µg/mL
MPI [5]: 100
IC50 [6]: 0.074 µg/mL
IC80 [6]: 0.224 µg/mL
MPI [6]: 100
IC50 [7]: 0.124 µg/mL
IC80 [7]: 0.344 µg/mL
MPI [7]: 100
IC50 [21]: 0.567 µg/mL
IC80 [21]: 1.76 µg/mL
MPI [21]: 100
IC50 [22]: 0.417 µg/mL
IC80 [22]: 1.34 µg/mL
MPI [22]: 100
IC50 [23]: 0.084 µg/mL
IC80 [23]: 0.29 µg/mL
MPI [23]: 99
IC50 [24]: 0.117 µg/mL
IC80 [24]: 0.586 µg/mL
MPI [24]: 100
IC50 [8]: 0.072 µg/mL
IC80 [8]: 0.245 µg/mL
MPI [8]: 100
IC50 [9]: 0.14 µg/mL
IC80 [9]: 0.597 µg/mL
MPI [9]: 100
IC50 [10]: 14.9 µg/mL
IC80 [10]: > 50 µg/mL
MPI [10]: 78
IC50 [11]: 0.181 µg/mL
IC80 [11]: 0.817 µg/mL
MPI [11]: 100
IC50 [12]: 0.08 µg/mL
IC80 [12]: 0.266 µg/mL
MPI [12]: 100
IC50 [25]: 0.036 µg/mL
IC80 [25]: 0.1 µg/mL
MPI [25]: 100
IC50 [26]: 0.129 µg/mL
IC80 [26]: 0.36 µg/mL
MPI [26]: 100
IC50 [27]: 17.5 µg/mL
IC80 [27]: > 50 µg/mL
MPI [27]: 80
IC50 [28]: 0.083 µg/mL
IC80 [28]: 0.283 µg/mL
MPI [28]: 100
IC50 [29]: 0.117 µg/mL
IC80 [29]: 0.443 µg/mL
MPI [29]: 100
IC50 [30]: 12.5 µg/mL
IC80 [30]: 38.4 µg/mL
MPI [30]: 89
IC50 [31]: 0.095 µg/mL
IC80 [31]: 0.328 µg/mL
MPI [31]: 100
IC50 [32]: 14.4 µg/mL
IC80 [32]: 47.3 µg/mL
MPI [32]: 82
IC50 [33]: 0.608 µg/mL
IC80 [33]: 3.25 µg/mL
MPI [33]: 100
IC50 [34]: 0.457 µg/mL
IC80 [34]: 1.54 µg/mL
MPI [34]: 100
IC50 [35]: 0.072 µg/mL
IC80 [35]: 0.318 µg/mL
MPI [35]: 100
IC50 [13]: 0.485 µg/mL
IC80 [13]: 1.55 µg/mL
MPI [13]: 100
IC50 [36]: 21.7 µg/mL
IC80 [36]: > 50 µg/mL
MPI [36]: 75
IC50 [14]: 16.9 µg/mL
IC80 [14]: > 50 µg/mL
MPI [14]: 78
IC50 [15]: 8.49 µg/mL
IC80 [15]: 27.7 µg/mL
MPI [15]: 93
IC50 [16]: 0.076 µg/mL
IC80 [16]: 0.392 µg/mL
MPI [16]: 100
IC50 [37]: 0.016 µg/mL
IC80 [37]: 0.05 µg/mL
MPI [37]: 100

N49P18.1 (antibody)
IC50 [1]: 8.56 µg/mL
IC80 [1]: 32.4 µg/mL
MPI [1]: 93
IC50 [2]: 2.97 µg/mL
IC80 [2]: 17.3 µg/mL
MPI [2]: 99
IC50 [3]: > 50 µg/mL
IC80 [3]: > 50 µg/mL
MPI [3]: 0
IC50 [4]: 0.741 µg/mL
IC80 [4]: 8.45 µg/mL
MPI [4]: 99
IC50 [5]: 30.4 µg/mL
IC80 [5]: > 50 µg/mL
MPI [5]: 75
IC50 [6]: 3.12 µg/mL
IC80 [6]: 23.9 µg/mL
MPI [6]: 94
IC50 [7]: > 50 µg/mL
IC80 [7]: > 50 µg/mL
MPI [7]: 33
IC50 [8]: 16.2 µg/mL
IC80 [8]: 44.7 µg/mL
MPI [8]: 83
IC50 [9]: 15.3 µg/mL
IC80 [9]: 41.9 µg/mL
MPI [9]: 85
IC50 [10]: 7.67 µg/mL
IC80 [10]: 39.1 µg/mL
MPI [10]: 85
IC50 [11]: 3.02 µg/mL
IC80 [11]: 13.9 µg/mL
MPI [11]: 99
IC50 [12]: 4.2 µg/mL
IC80 [12]: 14.3 µg/mL
MPI [12]: 99
IC50 [13]: 16.2 µg/mL
IC80 [13]: 47.8 µg/mL
MPI [13]: 81
IC50 [14]: > 50 µg/mL
IC80 [14]: > 50 µg/mL
MPI [14]: 34
IC50 [15]: 18.3 µg/mL
IC80 [15]: > 50 µg/mL
MPI [15]: 73
IC50 [16]: 10.4 µg/mL
IC80 [16]: 33.8 µg/mL
MPI [16]: 90

N49P11 (antibody)
IC50 [1]: 12.6 µg/mL
IC80 [1]: 26.4 µg/mL
MPI [1]: 100
IC50 [2]: 0.227 µg/mL
IC80 [2]: 1.03 µg/mL
MPI [2]: 100
IC50 [3]: 11.7 µg/mL
IC80 [3]: 27.9 µg/mL
MPI [3]: 100
IC50 [4]: 0.106 µg/mL
IC80 [4]: 0.372 µg/mL
MPI [4]: 100
IC50 [5]: 5.36 µg/mL
IC80 [5]: 18.4 µg/mL
MPI [5]: 100
IC50 [6]: 0.179 µg/mL
IC80 [6]: 1.09 µg/mL
MPI [6]: 100
IC50 [7]: 2.74 µg/mL
IC80 [7]: 15.3 µg/mL
MPI [7]: 100
IC50 [8]: 0.165 µg/mL
IC80 [8]: 1.24 µg/mL
MPI [8]: 100
IC50 [9]: 0.084 µg/mL
IC80 [9]: 0.505 µg/mL
MPI [9]: 100
IC50 [10]: 0.361 µg/mL
IC80 [10]: 2.58 µg/mL
MPI [10]: 100
IC50 [11]: 0.296 µg/mL
IC80 [11]: 3.24 µg/mL
MPI [11]: 100
IC50 [12]: 0.055 µg/mL
IC80 [12]: 0.192 µg/mL
MPI [12]: 100
IC50 [13]: 0.438 µg/mL
IC80 [13]: 1.47 µg/mL
MPI [13]: 100
IC50 [14]: 4.72 µg/mL
IC80 [14]: 15.9 µg/mL
MPI [14]: 100
IC50 [15]: 5.67 µg/mL
IC80 [15]: 18.2 µg/mL
MPI [15]: 100
IC50 [16]: 0.418 µg/mL
IC80 [16]: 3.83 µg/mL
MPI [16]: 100

Reference: US20230002480A1
